Assay results published in patent US7214519B2, “Screening method for identifying heme independent modulators of soluble guanylyl cyclase (sGC) activity using αβCys105 mutant sGC” (Board of Regents of the University of Texas System, priority 2003, dated 2007).
Numbering of substitutions follows the chain as printed. Where “and” joins values, the source holds several entries; their conditions need not be identical. Equal entries are not always repeated. Where two headings read alike, the source gives them in different places. Blank lines part the entries; values can stand above or below the substance they belong to.

Assays:
αβ^Cys105 mutant sGC [1] = target: T1, αβ^Cys105 mutant sGC (Homo sapiens, UniProt Q02108+Q02153, H105C); test: Assay of sGC activity ([32P]cGMP formation from GTP), purified αβ^Cys105 mutant enzyme; type: biochemical; conditions: for sensitivity to SNP after addition of hemin: absence of DTT; for PPIX activation, fold: 1 μM PPIX
T1 construct: made in house; host or cells: Sf9 cells (baculovirus)
T1 sequence (Q02153 1-619 H105C): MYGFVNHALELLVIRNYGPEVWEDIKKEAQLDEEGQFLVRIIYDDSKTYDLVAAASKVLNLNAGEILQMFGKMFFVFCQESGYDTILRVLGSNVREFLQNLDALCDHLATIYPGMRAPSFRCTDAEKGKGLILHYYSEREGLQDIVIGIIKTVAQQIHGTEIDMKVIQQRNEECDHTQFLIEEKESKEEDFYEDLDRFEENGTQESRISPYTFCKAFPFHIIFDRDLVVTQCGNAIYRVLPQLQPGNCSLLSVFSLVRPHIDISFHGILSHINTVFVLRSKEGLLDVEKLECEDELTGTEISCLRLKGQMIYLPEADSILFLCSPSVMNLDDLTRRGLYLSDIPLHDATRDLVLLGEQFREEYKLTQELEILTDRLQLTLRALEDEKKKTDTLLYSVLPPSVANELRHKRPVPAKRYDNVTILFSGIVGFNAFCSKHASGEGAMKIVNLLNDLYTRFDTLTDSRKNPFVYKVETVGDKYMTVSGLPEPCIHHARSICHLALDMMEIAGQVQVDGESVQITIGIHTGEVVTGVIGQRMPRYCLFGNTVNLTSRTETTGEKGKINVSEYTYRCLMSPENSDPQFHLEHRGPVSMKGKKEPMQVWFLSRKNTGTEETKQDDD
T1 sequence (Q02108 1-690): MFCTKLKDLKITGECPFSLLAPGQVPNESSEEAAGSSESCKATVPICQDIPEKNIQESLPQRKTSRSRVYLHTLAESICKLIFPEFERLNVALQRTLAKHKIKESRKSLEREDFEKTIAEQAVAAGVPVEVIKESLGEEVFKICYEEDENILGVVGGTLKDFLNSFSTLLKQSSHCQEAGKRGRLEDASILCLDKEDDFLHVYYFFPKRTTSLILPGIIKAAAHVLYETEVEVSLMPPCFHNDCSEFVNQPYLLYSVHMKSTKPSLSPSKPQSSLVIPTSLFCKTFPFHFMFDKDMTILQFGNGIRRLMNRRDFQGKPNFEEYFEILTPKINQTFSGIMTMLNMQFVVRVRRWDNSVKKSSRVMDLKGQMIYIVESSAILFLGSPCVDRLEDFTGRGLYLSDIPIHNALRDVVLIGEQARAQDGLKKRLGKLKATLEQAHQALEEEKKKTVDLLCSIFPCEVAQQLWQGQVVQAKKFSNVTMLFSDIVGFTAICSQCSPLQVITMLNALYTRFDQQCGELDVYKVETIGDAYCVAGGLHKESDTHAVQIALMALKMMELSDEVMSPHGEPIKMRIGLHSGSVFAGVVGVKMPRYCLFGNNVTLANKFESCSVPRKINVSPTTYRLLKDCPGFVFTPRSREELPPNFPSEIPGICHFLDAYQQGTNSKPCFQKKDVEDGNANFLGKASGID
Protocol: (§1) sGC Expression and Purification. […] Purification of sGC was performed as described earlier (26), the disclosure of which is hereby incorporated herein by reference, with the following modifications. Cells were harvested 72 h post infection, resuspended in loading buffer (25 mM triethanolamine, pH 7.5. 10 glycerol, 4 mM MgCl2 and 1 mM phenylmethylsulfonyl fluoride, and 5 μg/ml each of pepstatin A, leupeptin, aprotinin, and chymostatin,) and lysed by sonication. The lysate was subjected to 100,000×g centrifugation for 1 h. The high-speed supernate was loaded on a 60 ml DEAE-Sepharose (Amersham Pharmacia Biotech) column and washed with 60 ml of loading buffer without protease inhibitors. The proteins were eluted with loading buffer containing 250 mM NaCl and the eluate was directly loaded on a 30 ml His-Bind resin (Novagen) column. The column was washed with 60 ml of loading buffer followed by 60 ml of loading buffer with 45 mM imidazole. The enzyme was eluted with 175 mM imidazole and 2 ml fractions were collected. […] The enzyme at this stage was approximately 90–95% pure. To remove imidazole, sGC-containing fractions were diluted 3 fold with 25 mM triethanolamine pH 7.5, loaded on a 2 ml Hi-Trap DEAE-Sepharose column (Amersham Pharmacia Biotech), washed with 10 ml of loading buffer and eluted with 25 mM triethanolamine pH 7.5, 250 mM NaCl, 10 glycerol, 4 mM MgCl2, 0.5 mM EDTA, 0.5 mM EGTA. The enzyme obtained at this stage (95% or greater purity) was used for experiments.
(§2) Assay of sGC Activity. Enzyme activity was assayed by formation of [^32P] cGMP from α[^32P]GTP at 37° C. in a final volume of 100 μl. Incubation medium contained 50 mM triethanolamine-HCl buffer (pH 7.4), 1 mM 3-isobutyl-1-methylxanthine (IBMX), 1 mg/ml BSA. 1 mM cGMP, 3 mM MgCl2, 0.05 mg/ml creatine phosphokinase, 5 mM creatine phosphate, 0.1 mM EGTA. 200 μM GTP (about 10.000 cpm/pmol). The reaction was started by addition of the substrate (GTP) with or without activators. 1 mM DTT, GSH or cysteine were added to the incubation medium before the addition of GTP. Thiol concentration varied in some experiments as indicated. Samples containing 0.2 μg sGC were incubated for 10 or 15 min and the reaction was stopped by addition of 500 μl 150 mM zinc acetate and 500 μl 180 mM sodium carbonate. The pellet of zinc carbonate containing most of the unreacted GTP was removed by centrifugation and the supernatant fractions were loaded onto columns filled with 1 g of neutral alumina. Columns were then eluted with 10 ml 0.1 M Tris-HCl buffer (pH 7.5) and Cherenkov radiation in flow through plus eluate was counted in a LKB liquid scintillation spectrometer. Samples incubated in the absence of sGC were used as a negative control. The concentration of dimethylsulfoxide (DMSO) used as a vehicle for YC-1 was not higher than 0.1 and had no effect on sGC activity as determined previously.

αβ^Cys105 mutant sGC [2] = target: T1, αβ^Cys105 mutant sGC; test: Heme reconstitution of DTT-treated αβ^Cys105 enzyme followed by UV-Vis spectroscopy; type: binding; conditions: data not shown
Protocol: UV-Vis Spectroscopy. All absorbance measurements were recorded with a dual-beam Cecil 9500 spectrophotometer at 25° C. […] Hemin stock solution (5 mM) was prepared in DMSO and was reduced by dilution in 25 mM TEA, pH 7.5 containing 5 mM DTT to a working solution of 500 μM. The reduced heme was kept under argon in a gas-tight vial during the reconstitution.
The enzyme reconstituted with 10 μM hemin was subjected to gel filtration (after GF) or treated for 15 min with 50 μM NOC-7 (with NO) and the spectra recorded, as shown in FIG. 5D.

wild type sGC [3] = target: T2, wild type sGC (Homo sapiens, UniProt Q02108+Q02153); test: Assay of sGC activity ([32P]cGMP formation from GTP), purified wild type enzyme; type: biochemical
T2 construct: made in house; host or cells: Sf9 cells (baculovirus)
T2 sequence (Q02153 1-619): T1 sequence (Q02153 1-619 H105C) with C105H
T2 sequence (Q02108 1-690): T1 sequence (Q02108 1-690)
Protocol: as §1, §2

[4] = target: T3, Sf9 cells expressing wild type sGC (Homo sapiens, UniProt Q02108+Q02153); test: cGMP accumulation in intact Sf9 cells expressing wild type sGC; type: cell-based; conditions: basal, 0.5 mM IBMX
T3 construct: expressed in transfected cells; host or cells: Sf9 cells infected with baculoviruses
T3 sequence (Q02153 1-619): T1 sequence (Q02153 1-619 H105C) with C105H
T3 sequence (Q02108 1-690): T1 sequence (Q02108 1-690)
Protocol: (§3) Assay of cGMP Accumulation in Intact Cells. […] The reaction was terminated by addition of 50 μl of 1 M perchloric acid and cGMP was extracted on ice for 1 h. The extract was centrifuged, neutralized with 2M K2CO3 and used for cGMP determination by radioimmunoassay (9, 27). The pellet was dissolved in 0.1 M NaOH and used for protein assay by the method of Lowry (28).
(§4) Accumulated cGMP was extracted and quantified as described in Materials and Methods. Values are shown as means±s.d. The differences in intracellular accumulation of cGMP in Sf9 cells expressing the wild type enzyme or the mutant form are discussed below.

wild type sGC [5] = target: T2, wild type sGC; conditions: cited from earlier work
[6] = target: T4, Sf9 cells expressing αβ^Cys105 sGC (Homo sapiens, UniProt Q02108+Q02153, H105C); test: cGMP accumulation in intact Sf9 cells expressing αβ^Cys105 sGC; type: cell-based
T4 construct: expressed in transfected cells; host or cells: Sf9 cells infected with baculoviruses
T4 sequence (Q02153 1-619 H105C): T1 sequence (Q02153 1-619 H105C)
T4 sequence (Q02108 1-690): T1 sequence (Q02108 1-690)
Protocol: as §3, §4

sensitivity to SNP after addition of hemin (αβ^Cys105 mutant sGC [1]; 1 μM hemin): did not confer any sensitivity to SNP
sensitivity to SNP after addition of hemin (αβ^Cys105 mutant sGC [1]; 10 μM hemin, data not shown): did not have any significant effect
NO-activation upon addition of hemin (αβ^Cys105 mutant sGC [1]; presence of 1 mM DTT): partially restored its NO-activation
molar excess of reduced hemin at which binding is saturated (αβ^Cys105 mutant sGC [2]): 13 fold molar excess
Substance: Hemin [reference compound]

PPIX activation, fold (wild type sGC [3]; +DTT): 14 fold
PPIX activation, fold (wild type sGC [3]; No DTT): 6 fold
fold activation by NO (wild type sGC [3]; with DTT): (72.5) fold
rate of cGMP accumulation [4]: 0.9 nmol/mg/5 min
Substance: Wild Type: recombinant wild type human soluble guanylyl cyclase expressed in Sf9 cells
Specific activity (wild type sGC [3]; +NO (SNP), with DTT (1 mM)): 1.45 ± 0.1 µmol/min/mg
Specific activity (wild type sGC [3]; +NO (SNP), with DTT (1 mM), listed as wild type): 1.4 µmol/min/mg
Specific activity (wild type sGC [3]; +NO, without DTT): 1.41 ± 0.2 µmol/min/mg
Specific activity (wild type sGC [3]; Basal, with DTT (1 mM)): 0.02 ± 0.01 µmol/min/mg
Specific activity (wild type sGC [3]; Basal, with DTT (1 mM), listed as Wild type): 0.02 µmol/min/mg
Specific activity (wild type sGC [3]; Basal, with DTT (1 mM), listed as wild type): 0.02 µmol/min/mg
Specific activity (wild type sGC [3]; Basal, without DTT): 0.05 ± 0.02 µmol/min/mg
Specific activity (wild type sGC [3]; Basal, without DTT, listed as Wild type): 0.05 µmol/min/mg
Km (wild type sGC [5]; Basal, read-out: GTP-Km): 65 to 448 µM
Km (wild type sGC [5]; NO, read-out: GTP-Km): 11 to 134 µM
Km (wild type sGC [5]; literature (12, 30–32), read-out: range of GTP-Km measured for the recombinant sGC): 65 to 450 µM
specific activity after exposure to NO (wild type sGC [5]; recombinant wild type human sGC, previous studies): ~1.5 µmol/min/mg

PPIX activation, fold (αβ^Cys105 mutant sGC [1]; +DTT): 5.4 fold
PPIX activation, fold (αβ^Cys105 mutant sGC [1]; No DTT): 1.8 fold
basal cGMP accumulation relative to NO-activated cells overexpressing wild type enzyme [6]: about ten times higher
basal level of cGMP accumulation ([6]; basal, 0.5 mM IBMX): 33 nmol/mg/5 min
Substance: αβ^Cys105: heme-deficient, constitutively active human soluble guanylyl cyclase mutant; β subunit carries His105→Cys substitution
Km (αβ^Cys105 mutant sGC [1]; +DTT): 153 ± 11 µM
Specific activity (αβ^Cys105 mutant sGC [1]; +NO, with DTT, after heme reconstitution): 0.44 ± 0.08 µmol/min/mg
Specific activity (αβ^Cys105 mutant sGC [1]; +NO, without DTT, after heme reconstitution): 1.2 ± 0.2 µmol/min/mg
Specific activity (αβ^Cys105 mutant sGC [1]; Basal, with DTT (1 mM)): 0.12 ± 0.01 µmol/min/mg
Specific activity (αβ^Cys105 mutant sGC [1]; Basal, without DTT): 1.2 ± 0.3 µmol/min/mg
Km (αβ^Cys105 mutant sGC [1]; No DTT): ~150 µM and 150 µM
Specific activity (αβ^Cys105 mutant sGC [1]; absence of thiols, n=4 independent purifications): 0.0012 ± 0.0003 µmol/min/mg
Specific activity (αβ^Cys105 mutant sGC [1]; sample without any thiols (FIG. 1B, defined as 100)): 1e-06 ± 1e-07 µmol/min/mg
